According to the supplement of paper PMC9170038:

Tested on: MS2 coat protein
Experiment: apparent KD of MS2 coat protein; designed switch direction (-1 OFF switch, 1 ON switch): -1; higher = weaker reporter binding
How it was run: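 Designed RNA switches sharing common flanks were transcribed on Illumina chips by stalled E. coli RNA polymerase. They were titrated with SNAP-549-labelled MS2 coat protein, from 0.7 or 1.5 nM doubling to 3 µM, in Tris-HCl pH 7.5 buffer with KCl, MgCl2, BSA, DTT, tRNA and Tween-20. Titrations ran without input, with 200 uM small-molecule ligand, or with an oligonucleotide input. The apparent KD of each design is the median over its clusters, after curve-fitting of normalised cluster fluorescence.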

[1] = Eterna round: R95, input ligand: FMN 200 uM
[2] = Eterna round: R95, input ligand: microRNA oligo, concentration not stated
[3] = Eterna round: R95, input ligand: none
[4] = input ligand: microRNA oligo, concentration not stated

Sequence	apparent KD of MS2 coat protein [1] [µM]	apparent KD of MS2 coat protein [2] [µM]	apparent KD of MS2 coat protein [3] [µM]	apparent KD of MS2 coat protein (input ligand: FMN 200 uM) [µM]	apparent KD of MS2 coat protein [4] [µM]	apparent KD of MS2 coat protein (input ligand: none) [µM]
AGUAUCUAUCAUGAGAGUGGUAGGUACAACAGGUGGGAAACAUGAGGAUCACCCAUGUCCUCAUUUGCUCGUCUUAU [Grok-var2-01] (puzzle: Sensor v3, turn-off variant 2)	0.55	0.144	0.764	–	–	–
GAGUACUGAGGAUAUACAUGAGGAUCACCCAUGUGUUCCAGCUAGGAAACUAGCAAAAGUAGAAGGCAGUACUG [salish99_ex3_r3_084] (puzzle: Exclusion 3)	–	0.0189	–	–	–	–
GGUAGAGUGGUAGGAUAUCCGUCUGUUUCAGUCGGAGAAGGGCCACAGUCACUGGGUCCUAAUAUCAUGGAGACCUGAUCUACU [pwkr exNG1 F6.13] (Eterna round: R96, puzzle: Exclusion NG 1)	–	–	–	0.785	0.337	0.385
AGUAACCGUCACGAAAGUGAUGGUUACACAAGCAUAUGUACAUGAGGAUCACCCAUGUCCUCAACUGCUCGUCUUAU [Sensor 3 - 55] (puzzle: Sensor v3, turn-off variant 2)	0.296	0.385	0.424	–	–	–
UUGUAGUCAGGAUAUACAUGAGGAUCACCCAUGUAAAAUUUUAAUUUAAUUUGAAGGUGUAGAAGGGACCAGUU [Ex3 #24] (Eterna round: R97, puzzle: Exclusion 3)	–	–	–	0.0365	–	0.0434
CAUAUAGUAGUCAGGAUAUGCGAAGAGAGAAGGAAGUAGAAGGGACAUGAGGAUCACCCAUGUAUAUUGUAAAG [EX-4 Malc #3] (puzzle: Brourd's mod of Exclusion 4)	0.0296	0.0289	0.0284	–	–	–
UAUAUAUAGUAAGGAUAUGUAUUUAGUUUAUAAACAGAAGGUACUGACAUGAGGAUCACCCAUGUUUUAGUGUGGGCAUGUAGA [JMF's solution 14] (Eterna round: R96, puzzle: Exclusion NG 1)	–	–	–	–	0.0712	–
AAUAAUAAGGAGGAUAUCGUAUCGGAAACGAUACGAGAAGGCUUAACAUGAGGAUCACCCAUGUUCCUCAAUAA [Fiskers Ex 6 - 22] (puzzle: Exclusion 6)	–	0.0335	–	–	–	–
UAAACAAGCUAAAGAUUCUACAUGAGGAUCACCCAUGUGCUCGUCUUAUAAGGUACUGUGACGAAAGUCACGGUACC [JL TOV1 3.07] (Eterna round: R97, puzzle: Sensor, turn-off variant 1)	–	–	–	0.0179	–	0.0211
AGUACUCACACGAAAGUGUUAGUACAAUAAGCUUGUGAAACAUGAGGAUCACCCAUGUCCUCAUAAGCUCGUCUUAU [salish99_TOv2_r3_018] (Eterna round: R96, puzzle: Sensor v3, turn-off variant 2)	–	–	–	0.0162	0.43	0.0181
AGUUAGAAAGGAUAUACAUGAGGAUCACCCAUGUAGGGCUGUUAGAGACCCGGUCUCUGUAGAAGGUUCGAACU [EX3 C.16] (Eterna round: R97, puzzle: Exclusion 3)	–	–	–	0.0308	–	0.0289
AAUAACAGAGGAUAUACUGUUUUAUGUGUUUAUUGUUUUAAACAUGAGGAUCACCCAUGUAGAAGGCUGAAUAA [JMF 17] (puzzle: Exclusion 2)	–	0.0234	–	–	–	–
AAACGGCGGAUCGUGGCUUUUUGCUCGUCUUGUGCUUCGACAUGAGGAUCACCCAUGUGGUGGUGAUCCGUUGUAAA [Grok-var2-16 mod JAL] (Eterna round: R96, puzzle: Sensor v3, turn-off variant 2)	–	–	–	0.537	0.0124	0.084
AAGUUACAUGAGGAUCACCCAUGUGAGGAUAUGAGUCAGUCACGGUGACGUGGCUGACUCAGAAGGCACAAAGG [JL-ex1-4.37 salish99 mod] (Eterna round: R97, puzzle: Exclusion 1)	–	–	–	0.256	–	0.0981
AUCCUACAUGAGGAUCACCCAUGUCAGGAUAUCCAAGAAAUCUGGCCGUAUCGGCCAGGGAGAAGGGACAUGGU [jl-ex1-4.63 ViennaUCT mod] (Eterna round: R97, puzzle: Exclusion 1)	–	–	–	0.0853	–	0.049
AAUAACAGAGGAUAUACUAUUUUAUGUGUUUGUUAUUUUAAACAUGAGGAUCACCCAUGUAGAAGGCUGAUUAA [JMF 44] (puzzle: Exclusion 2)	–	0.0385	–	–	–	–
GCACCGUCAGGAUAUACAUGAGGAUCACCCAUGUGACCACCACUGUUCAUGACGCAUUGUAGAAGGGACGGAAA [Eternabot (L2) Solution 47] (Eterna round: R97, puzzle: Exclusion 3)	–	–	–	0.25	–	0.0547
AAGAAACAUGAGGAUCACCCAUGUGAGGAUAUGUAAAAUAAAAGAAAAGAAAGAAUAAACAGAAGGCACAAAGG [Mat - Mod of Hog D14] (puzzle: Exclusion 1)	0.0699	0.0644	0.0526	–	–	–

Sequence	apparent KD of MS2 coat protein [1] [µM]	apparent KD of MS2 coat protein [2] [µM]	apparent KD of MS2 coat protein [3] [µM]	apparent KD of MS2 coat protein (input ligand: FMN 200 uM) [µM]	apparent KD of MS2 coat protein [4] [µM]	apparent KD of MS2 coat protein (input ligand: none) [µM]
UUUUUGUGAGGAUAUCAGUAGUAAAAAAAUAAAAUUACUACUGAGAAGGCACAUGAGGAUCACCCAUGUUCUUU [salish99_ex4_r3_012] (puzzle: Exclusion 4)	–	0.0184	–	–	–	–
AUCAAAGAAUAUCAUAAGCACAUGAGGAUCACCCAUGUGAUGGGUGAGAGCCUGAAAGCCACUUCUGCUCGUCUUAU [Cac Sensor turn off var1 sub9] (Eterna round: R97, puzzle: Sensor, turn-off variant 1)	–	–	–	0.969	–	0.883
GUCAUACAUGAGGAUCACCCAUGUAAGGAUAUGCUAGCGGUCGGAAGACUGACUGCUAGCAGAAGGUACAUGAU [Mat - Mod of JL D80] (puzzle: Exclusion 1)	–	0.0615	–	–	–	–
AAGAUACAUGAGGAUCACCCAUGUGAGGAUAUGAGCACGCCGGUGACGGUGAUAAGAAUCAGAAGGCACAAUGG [JL-ex1-4.32 salish99 mod] (Eterna round: R97, puzzle: Exclusion 1)	–	–	–	0.151	–	0.327
AACCUGGCUGUUCACAGGAACAUGAGGAUCACCCAUGUCGUGGGUAGAUCCCUCCCUGGGAAAUCUGCUCGUCUUAU [Cac Sensor turn off v1 sub13] (Eterna round: R97, puzzle: Sensor, turn-off variant 1)	–	–	–	0.0346	–	0.0342
UUUUUUUUGCUGGUUUUUUACAUGAGGAUCACCCAUGUCCUCUGCUUGUCUUGUGUUGUGCUGGUUUCUGGUGCGGC [Revision to "-18.4 -40.2 kcal, A 8%"by Sellena] (Eterna round: R97, puzzle: Sensor, turn-off variant 1)	–	–	–	0.428	–	1.21
UAUUACUCAGGAUAUAUGAUGUGAAACAUGAGGAUCACCCAUGUAAUAUUAUGGAUGUAAAUAGAAGGGAGAUUUU [Mat - Exclusion 5 - JL mod - D18] (puzzle: Exclusion 5)	0.0518	0.0684	0.0548	–	–	–
UUAAAGUCAGGAUAUACAUGAGGAUCACCCAUGUAAAAUUUUAAUUUAAUUUGAAGGUGUAGAAGGGACAAAUU [Ex3 #36] (Eterna round: R97, puzzle: Exclusion 3)	–	–	–	0.0256	–	0.026
GCUGCGCGAGGAUAUGCGGUUUGCGCUGUGGCCCGUGGCGUACAUGAGGAUCACCCAUGUAGAAGGCGUGUGGG [Apr-15 SS2-55] (puzzle: Exclusion 2)	–	0.0186	–	–	–	–
UUUCAUCAUGUAGGAUAUGCGUGGCGAAGCUAUGCAGAAGGACAUGAGGAUCACCCAUGUUCUUGCGUCUGCGUACAGAUGCAA [JL ENG1 1.34] (Eterna round: R96, puzzle: Exclusion NG 1)	–	–	–	0.267	0.0355	0.043
ACAAGACAUGAGGAUCACCCAUGUGGUCGGAUGUCAAAGACCGAGGAUAUCAGCGACUGCGCCGCUGAGAAGGCGGAUGGUGCU [Telaed] (Eterna round: R96, puzzle: Exclusion NG 3)	–	–	–	1.26	0.476	0.652
AACCUUUAGUUAGGAUAUCGCAUCACCGUCAAGUGAGAAGGGACAUGAGGAUCACCCAUGUCUUCCGUGGGCUACACUGCUUCU [Eternabot solution 5] (Eterna round: R96, puzzle: Exclusion NG 1)	–	–	–	0.019	0.0194	0.0274
AGUUGGCGAGGAUAUACAUGAGGAUCACCCAUGUGAGAGGUACUAGUGAGGUCGAUUAGUAGAAGGCGCUGACA [Mat X3R4 m10] (Eterna round: R97, puzzle: Exclusion 3)	–	–	–	2.1	–	0.0483
GGAUAAAAGUGAGGAUAUGAGGAGAGAGAGAGAUCAGAAGGCACACAUGAGGAUCACCCAUGUGAGUUCUCGAUAAGAAACACG [Prohibition 55 - Jieux - Exclusion NG 1] (Eterna round: R96, puzzle: Exclusion NG 1)	–	–	–	0.0143	0.0132	0.0159
AAGAGGUCAGGAUAUACAGGAAGAGAGAGAAGUAGAGGGUAACAUGAGGAUCACCCAUGUAGAAGGGACUAAGA [JR_Exclu2_Sub071] (puzzle: Exclusion 2)	0.0679	0.0485	0.0631	–	–	–
UAUUAGCAAGCAAGAUCCCACAUGAGGAUCACCCAUGUGCUCGUCUUAUAAGGUACUGUGACGAAAGUCACGGUACC [Sensor 3, v1 - 83] (puzzle: Sensor v3, turn-off variant 1)	0.0368	1.08	0.038	–	–	–
CUGAUGUUAGGAUAUCAGGCGCCCGCCACUGGCAAGGCGCAUGAGAAGGGACAUGAGGAUCACCCAUGUAGUAA [Maquraan] (puzzle: Exclusion 4)	–	0.0215	–	–	–	–
